IntAct's records for PubMed 18552200

B1: DDB1- and CUL4-associated factor homolog 1 (Arabidopsis thaliana (Mouse-ear cress)), Q9M086 (parent)
chain: MDGQEHAEVPNSMVEDDQSVVAAEAIAELANSTGEPNPEEGEEQSVEDELIAKAQKLMEDITSVANNPNPNILHALSQLLESQESLFLEENGHFSNARGSHNSGKLCILIRENDEFFELISSTFLSENSYSTAVKAASARLLMNCSLTWMYPHVFDDAVTENFKNWVMEEAVKFPGEDSAKKEASDFEMLKTYSTGLLALSLASRGQIVEDVLTSGLSAKLMHYLRVRVLKEPSTSRIHTTETKHVSLKTKEEGRSRVRKIVDTVEGDHVLETDSGREMGQTDVQPDGEFEIDGRDVFNVSGVVDCKIKPGDDNSVRDDPSRHRLNRSKSRGRGRVHEGAPDTEVLLASPRLGRLLVRDRDLSKISDGRNAEDVTVCLGKMKSGIMEIEREDNDECFQGCIIGTKNITDLVKRAVGAAETEARAAHAPDDAAKAAGDAAAELVKTAALEEFKSSGSEEAAVSAATRAAITVIDAAEVSRNPTCVTSDQTTDVSEVSLPDIESLAQLQEKYCIQCLEILGEYVEVLGPVLHEKGVDVCIVLLERTSQLDDRSTVSPLLPDVMKLICALAAHRKFAAMFVERRGILKLLAVPRVSETFYGLSSCLYTIGSLQGIMERVCALPLVVIHQVVKLAIELLDCSQDQARKNSALFFAAAFVFRAILDAFDAQDSLQKLLAILKDAASVRTGANTDRSAPEVMTSSEKQMAFHTCFALRQYFRAHLLLLVDSIRPSRISRGGVPSSMKPNIRAAYKPLDISNEAVDAIFLQLQKDRRLGPTFVKAQWPAVNNFLASSGHVTMLELCQTPPVDRYLHDLLQYAFGVLHIVTSIPDGRKAIAHATLSNNRAGIAVILDAANISNSIVDPEIIQPALNVLINLVCPPPSLSNKPPLAQNHQPVPGQATTRPSTDVAVGTQSTGNAPQTPVAPASSGLVGDRRIFLGAGTGSAGLAAKLEQVYRQAREAVRGNDGIKILLKLLQPRIYVNPPATPDCLRALACRVLLGLARDDTIAQILTKLEVGKSLSELIRDSGGQSSGTDQGRWQAELAQVALELIGIVTNSGHATTLTASDAATPTLRRIERAAIAAATPITYDSKELLLLIHEHLQASGLGDTASALLKEAQLTPLPSSASPSSIAYSTTQEMSTPLAQEQWPSGRANSGFFTSKPKVCAHDEDPNSRSNAALSAKKKHLASSTLEMPTPVAQQQWPSGRANCGFCPSIPKINARDEDPSSRGNAAPSAKKKQLTFSPSFSSQSRKQSFSHDALPQSTQRINCCSNSDPALADTSETAAELVLKNDLDADAQFKTPISFPRKRKLSELRDSSVPGKRIDLGERRNSTFADGSGLQTPASALDANQSGSSRLGQMTPASQLRLPSDPQPSNPERLSLDSLVVQYLKHQHRQCLAPITTLPPVSLLHPHVCPEPKRLLEAPLNMTGRLGTRELQSFYSGVHGNRRDRQFVFSRFKSWRSFRDETALFTCIALLGGTNHIAVGSHAGEIKIFEASSGSMLESVSGHQAPVTLVQPYVSRDTQLLLSSSSSDVQLWDASSITGGPRHSFDGCKAAKFSNSGLQFAALSCEASRKDVLLYDVQTCSPCQKLTDTVTSSRSNPYSLVHFSPCDTLILWNGVLWDRRIPEKVRRFDQFTDYGGGGFHPSRNEVIINSEIWDMRTFKLLRSVPSLDQTAITFNSRGDVIYAMLRRNIEDVMSAVHTRRVKHPLFAAFRTLDAINYSDIATIPVDRCLLDFATEPTDSFLGLITMEDQEDMFSSARMYEIGRRRPTDDDSDPDDDDETEDEDEDDEEEDDLDRILGLAGDNSDSGDDDLSSEDNEDSVSDFDEEADILIDGDFMEELIEGENEDDGNGEDEDDDDDGEMQDFMSSGEEDDYRDNIRSS
partner: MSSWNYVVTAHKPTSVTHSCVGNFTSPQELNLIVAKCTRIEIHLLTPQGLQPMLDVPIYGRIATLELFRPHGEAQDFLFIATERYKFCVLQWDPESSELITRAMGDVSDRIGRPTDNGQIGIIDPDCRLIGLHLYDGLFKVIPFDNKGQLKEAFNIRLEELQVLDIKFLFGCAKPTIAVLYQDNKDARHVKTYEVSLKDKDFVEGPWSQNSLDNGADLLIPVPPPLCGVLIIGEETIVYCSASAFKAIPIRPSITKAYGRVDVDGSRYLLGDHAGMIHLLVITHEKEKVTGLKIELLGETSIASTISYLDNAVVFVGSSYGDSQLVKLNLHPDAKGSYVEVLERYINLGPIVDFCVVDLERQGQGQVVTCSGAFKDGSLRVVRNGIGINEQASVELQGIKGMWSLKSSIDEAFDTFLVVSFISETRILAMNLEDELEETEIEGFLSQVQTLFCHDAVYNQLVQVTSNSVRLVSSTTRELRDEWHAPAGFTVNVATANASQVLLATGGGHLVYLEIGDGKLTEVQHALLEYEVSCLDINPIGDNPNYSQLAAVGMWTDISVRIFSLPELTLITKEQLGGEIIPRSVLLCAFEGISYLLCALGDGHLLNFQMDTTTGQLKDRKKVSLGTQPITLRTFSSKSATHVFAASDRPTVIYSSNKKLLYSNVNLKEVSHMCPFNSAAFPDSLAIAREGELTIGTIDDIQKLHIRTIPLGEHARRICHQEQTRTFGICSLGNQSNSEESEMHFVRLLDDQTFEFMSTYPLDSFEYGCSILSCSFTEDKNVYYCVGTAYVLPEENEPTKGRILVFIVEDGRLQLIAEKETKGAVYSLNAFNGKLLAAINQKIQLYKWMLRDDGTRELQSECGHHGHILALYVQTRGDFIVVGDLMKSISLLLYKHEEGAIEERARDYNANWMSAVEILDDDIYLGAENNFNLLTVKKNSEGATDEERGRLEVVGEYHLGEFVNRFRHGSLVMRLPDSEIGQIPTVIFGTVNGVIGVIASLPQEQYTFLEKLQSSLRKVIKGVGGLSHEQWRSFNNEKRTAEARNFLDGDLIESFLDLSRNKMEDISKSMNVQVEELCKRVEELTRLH

Variants of: B1
Settings: with ddb1a_arath DDB1A

Effect of a mutation on the interaction, decreasing interaction:
D1658A;R1660A
D1622A;R1624A;D1658A;R1660A
D1622A;R1624A
